Experimental data published in patent publication US20030211537A1.

Assays:
[1] = target: H278N mutant mouse delta opioid receptor (mouse) (UniProt P32300); assay: competition vs 3H-naltrindole, COS-7 membranes
[2] = target: rat µ opioid receptor (rat) (UniProt P33535); assay: competition vs [3H]DAMGO, COS-7 membranes
[3] = target: mouse kappa opioid receptor (mORK1) (mouse) (UniProt P33534); assay: competition vs [3H]U-69,593, COS-1 membranes

Ki [2] [nM] | IC50 [3] [nM] | Substance | also measured
30 |  | PLO17 (peptide) | 
 | 0.2 | [D-Ala2, F5Phe4]Dynorphin (1-17)NH2 (from UniProt P01213 207-223) (peptide) | 
0.33 |  | dermorphin (peptide) | 

Second part, the substance before the results:

Substance | Ki [2] [nM] | IC50 [3] [nM] | also measured
D-Ala2-deltorphin II (peptide) |  |  | Ki [1]: 4 nM
[D-Ala2, F5Phe4]Dynorphin (1-13)NH2 (from UniProt P01213 207-219) (peptide) |  | 19 | 
morphiceptin (peptide) | 56 |  | 
